Laboratory results as given in article PMC9514218 (Protein Science : A Publication of the Protein Society, 2022).
Substitutions are numbered along the chain they refer to. Ends that are not written are not given here.

T1: SURP1 (res. 48–110) of human SF3A1, wild type (human, UniProt Q15459 48-110)
T1 sequence: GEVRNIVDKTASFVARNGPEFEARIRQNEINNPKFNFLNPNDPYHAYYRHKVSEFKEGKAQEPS

T2: SURP1 (res. 48–110) of human SF3A1, R62Q mutant (human, UniProt Q15459 48-110, R62Q)
T2 sequence: T1 sequence with R16Q

T3: SURP1 (res. 48–110) of human SF3A1, N63Q mutant (human, UniProt Q15459 48-110, N63Q)
T3 sequence: T1 sequence with N17Q

T4: SURP1 (res. 48–110) of human SF3A1, N63E mutant (human, UniProt Q15459 48-110, N63E)
T4 sequence: T1 sequence with N17E

T5: SURP1 (res. 48–110) of human SF3A1, K80D mutant (human, UniProt Q15459 48-110, K80D)
T5 sequence: T1 sequence with K34D

T6: SURP1 (res. 48–110) of human SF3A1, R62E mutant (human, UniProt Q15459 48-110, R62E)
T6 sequence: T1 sequence with R16E

T7: SURP1 (res. 48–110) of human SF3A1, K80Q mutant (human, UniProt Q15459 48-110, K80Q)
T7 sequence: T1 sequence with K34Q


Legend:
[1] = target: T1, SURP1 (res. 48–110) of human SF3A1, …; test: BLI
[2] = target: T2, SURP1 (res. 48–110) of human SF3A1, …; test: BLI
[3] = target: T3, SURP1 (res. 48–110) of human SF3A1, …; test: BLI
[4] = target: T4, SURP1 (res. 48–110) of human SF3A1, …; test: BLI
[5] = target: T5, SURP1 (res. 48–110) of human SF3A1, …; test: BLI
[6] = target: T6, SURP1 (res. 48–110) of human SF3A1, …; test: BLI
[7] = target: T7, SURP1 (res. 48–110) of human SF3A1, …; test: BLI
[8] = target: T1, SURP1 (res. 48–110) of human SF3A1, …; test: NMR solution structure

Kd [1] [µM]	Kd [2] [µM]	Kd [3] [µM]	Kd [4] [µM]	Kd [5] [µM]	Kd [6] [µM]	Kd [7] [µM]	binding result [8]	Binder
15.2	187	139	251	132	393	64.2	–	QRPGDPQSAQDKARMDKEYLSLMAELGEAPVPA (peptide, UniProt Q15637 295-327, looked up, also: biotin (position not given here)) [biotin-tagged SF1 S1BRp (res. 295–327)]
–	–	–	–	–	–	–	binds	QRPGDPQSAQDKARMDKEYLSLMAELGEAPVPA (domain or fragment, human, UniProt Q15637 295-327, looked up) [S1BR (res. 295–327) of SF1 as it stands in the chimera]
17.3	–	–	–	–	–	–	–	QRPGDPQSAQDKARMDKEYLSLMAELGEAPVPASVGSTSGP (peptide, UniProt Q15637 295-335, looked up, also: biotin (position not given here)) [biotin-tagged SF1 S1BRp (res. 295–335)]
